Experimental data taken from the DeepSol protein solubility set.

Assay: soluble on expression in E. coli; label from the status in PepcDB or PDB records

Sequence | soluble on expression in E. coli
MSLHVGAGKSFGTAEANENERRWNDDKIDRKNQDPTNHYDRTRMKLNFEIGPDGKIHPLGYQEKSLEVRLQERLDELGWKPFKADSKIQPNCCAKFVFGGNHDRTLEMAFGNQSVNLEKGADNSHLHRCEEIENWAKDVYDWCVQIYGQENIVGFQVHLDESSPHIHALVVPVGIRPKSGRKCVMWSAKFGKDRYEYGQILKEMHTFLYEDVGSKYGLERGDSIEGRNVHHLHKRDYIRKLTKEAKQAEKAVKGLQSMMRNLESKIFSYRLQLEETEKELASGKITLDRYEAQKADIQKLIAEYQTKLEDKTDKLHAKEQELERLTADATKARSVVQPFRNHKVDFMPPQITEKVPLFGTDKWVERQNQRIAKQFTEIVRKIESLYRNDAARQVEAAQRNVLADYGELYQLRRENKSLSDTNESLESELNTLLDQLAIPSARNLIFAVADALIGGQPVPVSSGGGGSTSDLPWDGRRSDEEEEAYRRRCLMFAIVTVCKQQTKSRREGHHHHHH | soluble
MSLHWLFGDQLGPHFLTPGEEGPGPETPLLMIEARSVFRRRRFHRAKAHLVLSAMRHRAAEPGDRVTYVRADTYRQGLARTARGRPVGVHHPTSHAALRLVRALPQVTVGPARGFLVPMTGFAAWAEGHGGKRLRQEDFYRWVRRGHGLLMDGEQPAAGRWNLDHDNREPPPREAASLQVGRPYRPREDDIDEEVRHDLDRWERDGDVSFVGRDGPRLFEGHHHHHH | soluble
MSLIDILVVDDDVAVCAALRLVLKRAGYNPVIANSPDEALSIMRNPDGGCKPAVILMDMNFSLSTSGREGLELLEKMQIFTSCPVILMTAWASIPLAVEGMRLGAFDFIGKPWDNDRLLRTIDTALHLAAPSAVANPSEQSDRDTARQPKATVQENDPCAHIIGRSDAICKIKERIRRIAPTHASVLITGESGTGKELIAEALHRGSKRASAPFVKVNLGGIPESLFESELFGHKKGAFTNAFSDRKGRFELADGGTIFLDEIGELPVGNQVKLLRVLQEQTFEPLGESVSHRVDIRVVSATNASLERMVAEGRFREDLYYRINLIHLHLPPLRERQEDIQLLVEAFSEAFAQSNGLPHAVWSAEAMRRICAMPLPGNVRELKNVVERTLLLSGSREISARDVADEGHHHHHH | soluble
MSLIDYQEVLSRYRPTQEEENKLKIISDDIIRKINSICRSRGLRAEAVIVGSYAKGTNLRDGDLDIFIAFDRDYPEEIINTEGLHIGHAVIPNGREKYAEHPYVSGEIGGVKIDVVPCYKMSFGDKKISAVDRTLLHTEYVNGHLDEKGRDEVRLLKIFTKSIGVYGAEARTFGFSGYLCELLVIRFGSFENVIRYFSKAKGRVLIDLDERFRDPMVLIDPVDPDRNVASPVSLESLSRMKIASKMFLSSPDEGFFQIEHNGKNVQYHDRGTCIMIYSLPKPDLTDDVIYPQVYRFRSVLQKIMESHEIRVISSEIDVSDRIYVLIETPACAEERIRVHTGPPVDTDNAVDFVNSWKARDRSRGPYIVADRLYVDVFTGQRSIEDIVRQEIFNYSIGKNLDRFKKSMEIMKFNVGMKSLPVLDKFFGADVFRKEGHHHHHH | soluble
MSLIGFLSDRQGFEKQYHDIDLSSFGIREGISEIIASTGFEHPNAAPIGIVMKGERPFVRLFKGSHTWENVLKEKCLASNVVYDPILFVRSTFSDLVPSEFEYVDAGEFKFPVLKEAIAWVVFECINLRNTDQSLVADLVPLNAGFNERNIKELPVPNRGFNAVLEATVHATRYQLTGEEKYLELIRHYESLASKCGGDAEKKAMKLIYEALGLEGHHHHHH | soluble
MSLIIDVLQHVPHEGPGLIANWARENQHQLKIHTLFEENEHVPKDSDFLIVLGGPMGINDTAEFPWLKDERKLIKRLSEQHKPVFGVCLGAQQIAATFGSEITVNKVKEVGWFPVKRTSDKLSFFPESLNVFHWHQDTFALPAGATRLFASEGCLNQAFLYGENIIGLQFHFEMEKAGIETILQIDEAFITPGKYVQSVEVMREKDVPEDNKQMLEAILDYLINPKTIEGHHHHHH | soluble
MSLIILTRDDEPRIFTPDSDAASPALHSTSPLPDPASASPLHREEKILPKVCNIVSCLSFSLPASPTDSGLASPTIITREGQQFWAKCLIWKYQLYLHGLHKKSDGRRDKQISASPST | soluble
MSLIIQVSPAGSMDLLSQLEVERLKKTASSDLYQLYRNCSLAVLNSGSHTDNSKELLDKYKNFDITVMRRERGIKLELANPPEHAFVDGQIIKGIQEHLFSVLRDIVYVNMHLADSQRLNLTNATHITNLVFGILRNAGALIPGATPNLVVCWGGHSINEVEYQYTREVGHELGLRELNICTGCGPGAMEGPMKGAAVGHAKQRYSEYRYLGLTEPSIIAAEPPNPIVNELVIMPDIEKRLEAFVRMAHGIIIFPGGPGTAEELLYILGIMMHPENADQPMPIVLTGPKQSEAYFRSLDKFITDTLGEAARKHYSIAIDNPAEAARIMSNAMPLVRQHRKDKEDAYSFNWSLKIEPEFQLPFEPNHESMANLDLHLNQRPEVLAANLRRAFSGVVAGNVKAEGIREIERHGPFEMHGDPVLMKKMDQLLNDFVAQNRMKLPGGSAYEPCYKIVTEGHHHHHH | soluble
MSLIKFNIAQWRAWAPGLESVDAWQAWSRQPALPENSDAAPDVSFLPAMQRRRLSRLARMAFSVGWPLAEGLEQLPLVFISRHGETPRTFEILSDLAAEQPLSPTQFSLSVHNAVIGLWSIMRGETSEMTALAAAGDGLEHGLLEAATLLADGAPHVLLVITEEQPPEAYASWIDDVPFPYALGLLLTPGDDWQLSLGSHDGQTPRAQWPHALNLLRTLLGAQTFCQHAWMNRVWTWQRNHEGHHHHHH | soluble
MSLILKEGEVVFEVPDKLTVTKKDEVFYNPRMKTCRDISIAVIQAFLNLYHKRDKFYIADALAGSGIRGLRYAKELEFNGELKVFLNDINPKAYEKIINNAKLNEIENIDVFNEDANTFLSKHFRFFNVVDIDPFGSPAPYVEQAIRALVTRNGLLCLTATDTAALCGRSKKSCLRKYLAYPLFGRDCHEFALRVLVGYVMRMATKYELALKPVFCHATDHYVRVYLVTDRGAKRADKVFEMLGYVKDVNGIKIIKKFEEGYEKGFAGPLYIGNLYDKALVEEALKIAEKREFSERVLKILNAIKGESAINQVGCYDTHQIGKMLKISVPPMQDIINKLKEMGFNAVVTHYNPKGIKTDATLKNVIEAIYQCTKIREGHHHHHH | soluble
MSLILVKDAIITGKKQDLLVEGNIIKKIGNISISEVSKDETEIIDGKNCVLIPGLINTHTHVPMSLFRGVADDIPLMEWLSGHIWPMESKLNEKIVYAGTLLGTIEMIKSGTTAFNDMYFFLDSIIKAVDETGIRSTIAYGMIDLFDEEKREKELKTAKESLEMIKNLNNSRITGALGPHAPYTCSKEILESTNALAREYNVPIHIHMNETLDEINQVVEKTGMRPFEYLNSFGFFDNVNTICAHCVHLSASEIQIMKEKNIFAAHNPVSNLKLASGVSPVLKLLENNIPVTLGTDGCGSNNNMNLFEEIKAAALIHKGVNLNPVAVIAKDAFDFGTKNGAKALNINSGEIKEGKLADFVLINMKKPYLTPKENIESHLVYSFNGVVDKVVIDGKLVLNDGKMVNIDEEKVYEIAEEAYFELANEGHHHHHH | not soluble
MSLIMTTFIQLHLLTAYAPANLNRDESGRPKTAFMGGVERLRVSSQSLKRAWRVSETFEAAMDGFMGKRTRRIGVDYVYRPMKDAGIEEKIAKSSSELIAKQFGKLKSDKDAKPEKNLEIEQIVHVSNHEISLIKQLVDTLIADKREPNDEEVKLLRKEQRSVDMALFDRMLASSPEFNVEAACQVSHALGVSAVTVESDFFTAVDDLNNKEEDAGSGHMGEQGFASALFYTYVCISRDLLVENLGGNEELAKRTIAALTETALTVSPTGKQNSFASRAYATYALAEVGQKQPRSLAAAFFQPVRDTDQIPAAITRLKQQRASFDSVYGNCADDYRELNVQEGTGSLAELLAFVSQEGHHHHHH | soluble
MSLIRIDFSQLHQAREDAAAAMPSIAGKKILMGFWHNWPAGAADGYQQGSFANIALEDVPSEYNVVAVAFMKGRGIPTFQPYNLSDAEFRRQVGVLNAQGRAVLISLGGADAHIELHAGQEQALAAEIVRLVETYGFDGLDIDLEQSAIDLADNQRVLPAALKLVREHYAGQGKHFIVSMAPEFPYLHKNGKYVPYLQALEGVYDFIAPQYYNQGGDGLWVQEANGGKGAWIAQNNDAMKEDFLYYLTESLATGSRDFVRIPAQRLAIGLPSNVDAAATGYVIDPAAVSNAFRRLEAAGHAIKGLMTWSVNWDDGLNKRGERYNWEFRKRYASLIHDGEGGDQRPAAPQGLRLLERGETSLVLAWNASSGQRPIDYYSLYRDGAMVGQSAALGSTDSGLTADTRYSYFVTATDTQGNQSLPSEGLEVSTSGGAVDPQFPQWRENQAYRVDDGVTYEGLRYLCLQAHTSNSGWTPPVAFTLWREGGSHHHHHH | soluble
MSLITVNTLQKMKAAGEKIAMLTAYESSFAALMDDAGVEMLLVGDSLGMAVQGRKSTLPVSLRDMCYHTECVARGAKNAMIVSDLPFGAYQQSKEQAFAAAAELMAAGAHMVKLEGGVWMAETTEFLQMRGIPVCAHIGLTPQSVFAFGGYKVQGRGGKAQALLNDAKAHDDAGAAVVLMECVLAELAKKVTETVSCPTIGIGAGADCDGQVLVMHDMLGIFPGKTAKFVKNFMQGHDSVQAAVRAYVAEVKAKTFPAAEHIFADEGGSHHHHHH | soluble
MSLIVDREELEYDGSQLRRAFAHERYGIKGRAVVVFRGPMDVRTEYTADAEDVGSPIRGNDVLHLLVDDPTRADPLVAGLLQRLLVVVTKEVIEKELSTDLDRDGDDLLHDGRKLTVSVFKPAGPGSLAHLGINVTTEGVPVPASSLRDLGYRGDPLDLGRRVAVEFVREITDVELDLTKIRWEGHHHHHH | soluble
MSLKADPRGTGSRTPGTATGGKTVPTVPPAPTADRRTTVDVTALLERGRTLATPVLRAAVDRLAPPMDTVAAYHFGWIDAQGNPADGDGGKAVRPALAVLSAEVTGAAPEVGVPGAVAVELVHNFSLLHDDLMDGDEQRRHRDTVWKVHGPAQAILVGDALFALANEVLLELGTVEAGRATRRLTKASRSLIDGQAQDISYEHRDRVSVEECLEMEGNKTGALLACASSIGAVLGGADERTADTLEKYGYHLGLAFQAVDDLLGIWGDPDATGKQTWSDLRQRKKSLPVVAALAAGGAASERLGEILTADAKASDFANFSEEEFAARAALIEEAGGREWTADEARRQHTIAIEALDAVDMPDRVRDRFTALADFVVVRKREGHHHHHH | soluble
MSLKAFLHHLQNEAKLIISLTYCVDGEFALNEIARATLQQYGIVQLSSATNSDSETEAATSKAVKTAYDKAVEAKTTADGKVGLNGNESINGEKTFENRIVAKRNIRISDSPHYASRGDYLNIGANNGDCWFEYKLSNQEIGTLRMHANGDLTYKRQKIYLKMDCWQAIHKRKLKVFTAKRKKREGHHHHHH | not soluble
MSLKANNLLSQFGDHRQRVQSAITAVCEGRGILLVDDENRENEGDLIFSAQSMTEADMAIMIRHCSGIVCLCITEEKARQLNLPLMVEQNTSKYGTAFTISIEAAEGVTTGVSAADRIQTIRTAIAPNATPESLHHPGHIFPLIARSGGIKERSGHTEGSIDLMKLAGLAPCAVLCELTNDDGTMARLPEIIKFGLEHKYPVVTINDLKEYQTAPDFLPKLVGSFSCPAAENPTTAIMEAAFRHHYMHYRYINCEVGPENLAAAIQGAKAMGWRGFNCSLPNKVEIIRYLDELGESAKIIGAVNTVVIGDDQRATGENTDGKGFVKAISEIITIQDKKIALLGAGGAARAIAVEMALAGVKEITILNRNRDKGQALADLLNSQTVATARFVLWDHPYRFSTDIDIVINATSVGLYSNVDQRLNIDTDTLLPHMVVADCIPNPVYTQLLRDAVRRGCCHVLPGMKMLVYQAVIAIKYWSGVDVDPDIMLEKLKEVVKEGHHHHHH | soluble
MSLKIAILCASGKVGKEISKEALKRNLEPVCFVRNSSKMNEFLPQAKIVQRDLFELDSKDLIDFDIIIDAFGEWENLSLHKKHIECLSVILQGSKAKLFVVGGAGSLYMDENHTTRLMDMPDFPKEYLDIAKASAEVLEFLRNEKGFKWVYVSPSAIFSPDLPKSNHYKIIGEKFEVNANNESKISYSDYASAMIDIVLNSCYENTRIGVISLEGHHHHHH | soluble
